Experimental data as given in patent US20090048161A1.
Where no end group is shown, it is not given here. [ ]: non-standard residue; d: D form.

Biological target: IL-1R on freshly isolated rat thymocytes (rat) (UniProt Q02955)
Assay: radioligand binding on freshly isolated rat thymocytes: displacement of 6 nM I^125-API-101.10 by increasing non-radioactive API-101.10 (printed as 'affinity')

Kd: 1000 nM
B1: API-101.10 (peptide)
peptide: [dR][dY][dT][dV][dE][dL][dA]
modifications: also: 125I-labelled form used as tracer, site not given here
